Source: paper PMC6831621, “Structural Insight Into Chitin Degradation and Thermostability of a Novel Endochitinase From the Glycoside Hydrolase Family 18” (Frontiers in Microbiology, 2019)

Each protein was assayed on CC(=O)N[C@H]1[C@H](Oc2ccc3c(C)cc(=O)oc3c2)O[C@H](CO)[C@@H](O[C@@H]2O[C@H](CO)[C@@H](O)[C@H](O)[C@H]2NC(C)=O)[C@@H]1O (assay: fluorogenic substrate hydrolysis, Michaelis-Menten non-linear fit). Details: McIlvaine's buffer pH 5.0, substrate 0.01-0.6 mM, temperature not given for kinetics.
Type: biochemical, Pseudoalteromonas aurantia
Description: fluorogenic substrate hydrolysis, Michaelis-Menten non-linear fit on Chi23

Row | Protein | Km | Vmax | kcat
1 | Chi23 (Pseudoalteromonas aurantia; G79A) (protein, pET22b NdeI/XhoI, His-tagged (C-terminal by primer design), E. coli BL21(DE3); monomer; forward primer encodes MSKTITYYNS, reverse primer encodes AQSLNS at the C-terminus) MSKTITYYNSGAVPLINASELPYDVVNLAFLSSSSNNPFNLVLSGAIAATESSFTTNTIEAIKVMQHKGQKVLISFGGATMGSNAYRSLSEDTAKLADSLASFVKNNQLDGVDIDYEDTAAFTGQAGYDGAQFLISLTQELRKRLPSPDYIISHAPQPPYLEQGGYMAGYVEVVELVGQEIDWLNVQFYNNPPWSANPDQIVSSYLNYTKLPNMSPEKVIAGFPVTQNDAGSGYMPVQTIINEVIKPIQQQSSLGGIMNWQFSSDHNGDWIKAIAQSLNS | 72.6 ± 6.9 µM | 0.0576 µmol/min/mg | 0.0295 ± 0.0013 s⁻¹
2 | Chi23 (Pseudoalteromonas aurantia; Q157A) (protein, pET22b NdeI/XhoI, His-tagged (C-terminal by primer design), E. coli BL21(DE3); monomer; forward primer encodes MSKTITYYNS, reverse primer encodes AQSLNS at the C-terminus) MSKTITYYNSGAVPLINASELPYDVVNLAFLSSSSNNPFNLVLSGAIAATESSFTTNTIEAIKVMQHKGQKVLISFGGGTMGSNAYRSLSEDTAKLADSLASFVKNNQLDGVDIDYEDTAAFTGQAGYDGAQFLISLTQELRKRLPSPDYIISHAPAPPYLEQGGYMAGYVEVVELVGQEIDWLNVQFYNNPPWSANPDQIVSSYLNYTKLPNMSPEKVIAGFPVTQNDAGSGYMPVQTIINEVIKPIQQQSSLGGIMNWQFSSDHNGDWIKAIAQSLNS | 104.1 ± 17.5 µM | 0.0044 µmol/min/mg | 0.0022 ± 0.0002 s⁻¹
3 | Chi23 (Pseudoalteromonas aurantia; Q261A) (protein, pET22b NdeI/XhoI, His-tagged (C-terminal by primer design), E. coli BL21(DE3); monomer; forward primer encodes MSKTITYYNS, reverse primer encodes AQSLNS at the C-terminus) MSKTITYYNSGAVPLINASELPYDVVNLAFLSSSSNNPFNLVLSGAIAATESSFTTNTIEAIKVMQHKGQKVLISFGGGTMGSNAYRSLSEDTAKLADSLASFVKNNQLDGVDIDYEDTAAFTGQAGYDGAQFLISLTQELRKRLPSPDYIISHAPQPPYLEQGGYMAGYVEVVELVGQEIDWLNVQFYNNPPWSANPDQIVSSYLNYTKLPNMSPEKVIAGFPVTQNDAGSGYMPVQTIINEVIKPIQQQSSLGGIMNWAFSSDHNGDWIKAIAQSLNS | 86.3 ± 6.6 µM | 0.0009 µmol/min/mg | 0.0005 ± 2e-05 s⁻¹
4 | Chi23 (Pseudoalteromonas aurantia; D229A) (protein, pET22b NdeI/XhoI, His-tagged (C-terminal by primer design), E. coli BL21(DE3); monomer; forward primer encodes MSKTITYYNS, reverse primer encodes AQSLNS at the C-terminus) MSKTITYYNSGAVPLINASELPYDVVNLAFLSSSSNNPFNLVLSGAIAATESSFTTNTIEAIKVMQHKGQKVLISFGGGTMGSNAYRSLSEDTAKLADSLASFVKNNQLDGVDIDYEDTAAFTGQAGYDGAQFLISLTQELRKRLPSPDYIISHAPQPPYLEQGGYMAGYVEVVELVGQEIDWLNVQFYNNPPWSANPDQIVSSYLNYTKLPNMSPEKVIAGFPVTQNAAGSGYMPVQTIINEVIKPIQQQSSLGGIMNWQFSSDHNGDWIKAIAQSLNS | 80.1 ± 6.3 µM | 0.0027 µmol/min/mg | 0.0014 ± 5e-05 s⁻¹
5 | Chi23 (Pseudoalteromonas aurantia; N9A) (protein, pET22b NdeI/XhoI, His-tagged (C-terminal by primer design), E. coli BL21(DE3); monomer; forward primer encodes …, reverse primer encodes AQSLNS at the C-terminus) MSKTITYYASGAVPLINASELPYDVVNLAFLSSSSNNPFNLVLSGAIAATESSFTTNTIEAIKVMQHKGQKVLISFGGGTMGSNAYRSLSEDTAKLADSLASFVKNNQLDGVDIDYEDTAAFTGQAGYDGAQFLISLTQELRKRLPSPDYIISHAPQPPYLEQGGYMAGYVEVVELVGQEIDWLNVQFYNNPPWSANPDQIVSSYLNYTKLPNMSPEKVIAGFPVTQNDAGSGYMPVQTIINEVIKPIQQQSSLGGIMNWQFSSDHNGDWIKAIAQSLNS | 90.1 ± 13.4 µM | 0.0042 µmol/min/mg | 0.0021 ± 0.0002 s⁻¹
6 | Chi23 (Pseudoalteromonas aurantia; T80A) (protein, pET22b NdeI/XhoI, His-tagged (C-terminal by primer design), E. coli BL21(DE3); monomer; forward primer encodes MSKTITYYNS, reverse primer encodes AQSLNS at the C-terminus) MSKTITYYNSGAVPLINASELPYDVVNLAFLSSSSNNPFNLVLSGAIAATESSFTTNTIEAIKVMQHKGQKVLISFGGGAMGSNAYRSLSEDTAKLADSLASFVKNNQLDGVDIDYEDTAAFTGQAGYDGAQFLISLTQELRKRLPSPDYIISHAPQPPYLEQGGYMAGYVEVVELVGQEIDWLNVQFYNNPPWSANPDQIVSSYLNYTKLPNMSPEKVIAGFPVTQNDAGSGYMPVQTIINEVIKPIQQQSSLGGIMNWQFSSDHNGDWIKAIAQSLNS | 85.6 ± 7.2 µM | 0.0144 µmol/min/mg | 0.0073 ± 0.0003 s⁻¹
7 | Chi23 (Pseudoalteromonas aurantia) (protein, pET22b NdeI/XhoI, His-tagged (C-terminal by primer design), E. coli BL21(DE3); monomer; forward primer encodes MSKTITYYNS, reverse primer encodes AQSLNS at the C-terminus) MSKTITYYNSGAVPLINASELPYDVVNLAFLSSSSNNPFNLVLSGAIAATESSFTTNTIEAIKVMQHKGQKVLISFGGGTMGSNAYRSLSEDTAKLADSLASFVKNNQLDGVDIDYEDTAAFTGQAGYDGAQFLISLTQELRKRLPSPDYIISHAPQPPYLEQGGYMAGYVEVVELVGQEIDWLNVQFYNNPPWSANPDQIVSSYLNYTKLPNMSPEKVIAGFPVTQNDAGSGYMPVQTIINEVIKPIQQQSSLGGIMNWQFSSDHNGDWIKAIAQSLNS | 64.6 ± 11.7 µM | 0.0107 µmol/min/mg | 0.0054 ± 0.0005 s⁻¹
8 | Chi23 (Pseudoalteromonas aurantia; N190A) (protein, pET22b NdeI/XhoI, His-tagged (C-terminal by primer design), E. coli BL21(DE3); monomer; forward primer encodes MSKTITYYNS, reverse primer encodes AQSLNS at the C-terminus) MSKTITYYNSGAVPLINASELPYDVVNLAFLSSSSNNPFNLVLSGAIAATESSFTTNTIEAIKVMQHKGQKVLISFGGGTMGSNAYRSLSEDTAKLADSLASFVKNNQLDGVDIDYEDTAAFTGQAGYDGAQFLISLTQELRKRLPSPDYIISHAPQPPYLEQGGYMAGYVEVVELVGQEIDWLNVQFYANPPWSANPDQIVSSYLNYTKLPNMSPEKVIAGFPVTQNDAGSGYMPVQTIINEVIKPIQQQSSLGGIMNWQFSSDHNGDWIKAIAQSLNS | 77.4 ± 16.2 µM | 4e-05 µmol/min/mg | 2e-05 ± 2e-06 s⁻¹
